The data set can be described thus: yeast display, Sf9 membrane polyspecificity reagent, FACS + sequencing; frameworks hold sequencing errors. The gist of the method:
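In a synthetic yeast display library (Saccharomyces cerevisiae BJ5465), nanobody expression was induced with galactose for 36–48 hours. FACS gates were set low and high (top ~1%) using anti-HA fluorescence for expression and streptavidin fluorescence for binding of the Sf9 membrane reagent. Each polyreactivity label is drawn from the gate of origin.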
As for “QVQLVESGGGLVQAGGSLRLSCAASGFIFRNYAMGWYRQAPGKERELVAVISQRGGSTYYADSVKGRFTSSRDNAKNTVYVQMNSLKPEDTAVYYGAKRKDYNRRGYDYWGQGTQVTVSS”, the “polyreactivity (PSR sort gate)” value was “high polyreactivity”.

As to “QVQLVESGGGLVQAGGSLRLSCAASGFIFRNYVMGWKRPAPGKERELVADITFSGGGTYYADSVKGRFTISRDNAKNTVYLLMNSLIPEDTAVYYCAVYWNWQYDYCGQGTQVTVSS”, the “polyreactivity (PSR sort gate)” value was “high polyreactivity”.

As for “QVQLVESGGGLVQAGGSLRLSCAASGFIFRPYAMGWYRQAPGKERELVAAISYGDGITYYADSVKGRFTISRDNAKNTVYLQMNSLKPEDTAVYDCAVDSHPEEYDYWGQGTQVTVSS”, the “polyreactivity (PSR sort gate)” value is recorded as “low polyreactivity”.

“QVQLVESGGGLVQAGGSLRLSCAASGFIFRPYAMGWYRQAPGKERELVATISYRGGSTDYADSVKGRFTISRDNAKNTVYLQMNSLKPEDTAVYYCNAGYNRGYYYPVFAFFPYEYWGQGTQVTVSS”: the “polyreactivity (PSR sort gate)” value is given as “low polyreactivity”.

Consider “QVQLVESGGGLVQAGGSLRLSCAASGFIFRQNAMGWYRQAPGKEWELVARITWNGGRTYYADSVKGRFTISRDNAKNTVYLQMHSLKPEDTAVYYCNAVYWGYGKYDYWGQGTQVTVSS”, for which the “polyreactivity (PSR sort gate)” value was “high polyreactivity”.

For “QVQLVESGGGLVQAGGSLRLSCAASGFIFRRNAMGWYRQAPGKERELVATIRASGGRTYYADSVKGRFTISRDNAKNTVYLQMNSLKPEDTAVYYCNKRGGYYGSPNYDYWGQGTQVTVSS”, the “polyreactivity (PSR sort gate)” value was “high polyreactivity”.

For “QVQLVESGGGLVQAGGSLRLSCAASGFIFRRYAMGWYRQAPGKERELVAAINYSGTSTYYADSVKGRFTISRDNAKNTVYLQMNSLKPEDTAVYYCNARVGYPPYDYWGQGTQVTVSS”, the “polyreactivity (PSR sort gate)” value is listed as “low polyreactivity”.

As to “QVQLVESGGGLVQAGGSLRLSCAASGFIFRRYAMGWYRQAPGKERELVAAITWNGGTTYYADSVKGRFTISRDYAKNTVYLQMNRLKPEDTAVYYCAAASRHTGSYRFYYWGQGTQVTVSS”, the “polyreactivity (PSR sort gate)” value is recorded as “high polyreactivity”.

On to “QVQLVESGGGLVQAGGSLRLSCAASGFIFRRYAMGWYRQAPGKERELVARISTIGGNTFYADSVKGRFTISRDTAKNTVYLQMNSLKPEDTAVYYCATTGGPSWRKYYSWGQGTQVTVSS”, for which the “polyreactivity (PSR sort gate)” value was “high polyreactivity”.

Consider “QVQLVESGGGLVQAGGSLRLSCAASGFIFRRYAMVWYRQAPGKERELVAAISTGGSTYYADSVKGRFTISRDNAKNTVYLQMNSLKPDDTAVFYCNVKRRTYGQYRMYYWGQGTQVTVSS”, for which the “polyreactivity (PSR sort gate)” value is reported as “low polyreactivity”.

For “QVQLVESGGGLVQAGGSLRLSCAASGFIFRRYTMGWYRQAPGKERELVAAISWTGGSTYYADSVKGRFTISRDNAKNTVYLQINRLKPEDTAVYYCNAVLYTPVYDGFDSWGQGTQVTVSS”, the “polyreactivity (PSR sort gate)” value is “high polyreactivity”.

In the case of “QVQLVESGGGLVQAGGSLRLSCAASGFIFRRYVMGWTRQAPGKERELVAAISNGGGRTYYADSVKGRFTISRDNAKNTVYLQMNSLKPEDTAVYYCAAYPRGPLAPDYDYWGQGTQVTVSS”, the “polyreactivity (PSR sort gate)” value was “high polyreactivity”.

Turning to “QVQLVESGGGLVQAGGSLRLSCAASGFIFRSYVMGWYRQSPGKERELVAAISKSGGSTYYADSVKGRFTISRDNAKTTVYLQMNSLKPEDTAVYYCAAGTTRTGYRTRYDYWGQGTQVTVSS”, the “polyreactivity (PSR sort gate)” value is on record as “high polyreactivity”.

On to “QVQLVESGGGLVQAGGSLRLSCAASGFIFRVYAMGWYRQAPGKERELVAAITRAGNTYYADSVKGRFTISRDNAMNTVYLQMNSLKPEDTAVYYCNKYHYWASPMNYWGQGTQVTVSS”, for which the “polyreactivity (PSR sort gate)” value is listed as “high polyreactivity”.

For the sequence “QVQLVESGGGLVQAGGSLRLSCAASGFIFRWNAMGWYRQAPGKERELVAAITSGGGTNYADSVKGRFTISRDNAKNTVYLQMNSLKPEDTAVYYCNASYRRYSNYYKYGYWGQGTQVTVSS”, the “polyreactivity (PSR sort gate)” value is “high polyreactivity”.

With “QVQLVESGGGLVQAGGSLRLSCAASGFIFRWYAMGWYRQAPGKERELVAAITSGGSTYYADSVKGRFTISRDNAKNTVYLQMNSLKPEDTAVYYCNTYPGSRHWWYDYWGQGTQVTVSS”, the “polyreactivity (PSR sort gate)” value was “high polyreactivity”.

For the sequence “QVQLVESGGGLVQAGGSLRLSCAASGFIFRYNAMGWYRQAPGKERELVAAISSSGTTNYADSVKGRFTISRDNAKNTVYLQMNSLKPEDTAVYYCAADRRDRSPYYYWGQGTQVTVSS”, the “polyreactivity (PSR sort gate)” value was “high polyreactivity”.

In the case of “QVQLVESGGGLVQAGGSLRLSCAASGFIFRYNPMGRYRHAPGKEREFVAAIDSGGSTYYADSVKGRFTISRDNAKNTVYLQMNSLKPEDTAVYYCNAVHEASYAGVDYWGQGTQVTVSS”, the “polyreactivity (PSR sort gate)” value is reported as “low polyreactivity”.

Consider “QVQLVESGGGLVQAGGSLRLSCAASGFIFRYNPMGWYRQAPGKERELVAVITSGGRTYYADSVKGRFTISRDNAKNTVYLQMNSLKPEDTAVYYCNGDSRHRRNYDYWGQGSQVTVSS”, for which the “polyreactivity (PSR sort gate)” value was “high polyreactivity”.

Take “QVQLVESGGGLVQAGGSLRLSCAASGFIFRYNTMGWYRQAPGKQRELVATITSGGSTYYADSVKGRFTISRDNAKNTFYLQMNSLKPEDTAVYYFAKVRDVLWRFNYWGQGTQVTVSS”: the “polyreactivity (PSR sort gate)” value is “high polyreactivity”.

For “QVQLVESGGGLVQAGGSLRLSCAASGFIFRYYAMGGYRQAPGKERELVAAISWSGVSTNYADSVKGRFTISRDNAKNTVYLQMNSLTPVDTAVYSCAADGTVRSLGRYYHWGQGTQVTVSS”, the “polyreactivity (PSR sort gate)” value is given as “low polyreactivity”.

In the case of “QVQLVESGGGLVQAGGSLRLSCAASGFIFRYYAMGWSRQAPGKERELVAAISTGGSTHYADSVKGRFTISRDNAKNTVYLQMNSLKPEDTAVYYCAAPRYFRVRYGYWGQGTQVTVSS”, the “polyreactivity (PSR sort gate)” value is listed as “high polyreactivity”.

Take “QVQLVESGGGLVQAGGSLRLSCAASGFIFRYYAMGWYRQAPGKEREFVAAISSSGGSTYYADSVKGRFTISRDNAKNTVYLQMNSLKPEDTAVYYCAARSRQDNFYRSYNSWGQGTQVTVSS”: the “polyreactivity (PSR sort gate)” value is listed as “high polyreactivity”.

On to “QVQLVESGGGLVQAGGSLRLSCAASGFIFRYYAMGWYRQAPGKERELFAAISWSGGTTYYADSVKGRFTISRDNAKNTVYLQMNSLKPEDTAVYYCNAGYNGKRRDPVDYWGQGTQVTVSS”, for which the “polyreactivity (PSR sort gate)” value is listed as “low polyreactivity”.

Consider “QVQLVESGGGLVQAGGSLRLSCAASGFIFRYYAMGWYRQAPGKERELVAAISGSGGGTYYADSVKGRFTISRDNAKNTVYLQMNSLIPEDTAVYYCAATWTQPQPGYYPYYYWGQGTQVTVSS”, for which the “polyreactivity (PSR sort gate)” value is reported as “high polyreactivity”.

For the sequence “QVQLVESGGGLVQAGGSLRLSCAASGFIFRYYAMGWYRQAPGKERELVAAISGSGGGTYYADSVKGRFTISRDNAKNTVYLQMNSLKPEDTAVYYCAAGSTSGYFRYYYWGQGTQVTVSS”, the “polyreactivity (PSR sort gate)” value is given as “high polyreactivity”.

In the case of “QVQLVESGGGLVQAGGSLRLSCAASGFIFRYYAMGWYRQAPGKERELVAAISKRGGGTYYADSVKGRFTISRDNAKNTVYLQMNSLKPEDTAVYYCNKDGGYGTGSSREYDSWGQGTQVTVSS”, the “polyreactivity (PSR sort gate)” value is listed as “high polyreactivity”.

As to “QVQLVESGGGLVQAGGSLRLSCAASGFIFRYYAMGWYRQAPGKERELVAAISRSGGSTYYADSVKGRFTISRDNAKNTVYLQMNSLKPEDTAVYYCAALQSRSWYQFNYWGQGTQVTVSS”, the “polyreactivity (PSR sort gate)” value was “high polyreactivity”.

With “QVQLVESGGGLVQAGGSLRLSCAASGFIFRYYAMGWYRQAPGKERELVAGITRTGGRTYYADSVKGRFTISRDNAKNTVYLQMNSLKPEDTAVYYCAADQYSRWRTKEAFSEYGFDYWGQGTQVTVSS”, the “polyreactivity (PSR sort gate)” value was “high polyreactivity”.

Consider “QVQLVESGGGLVQAGGSLRLSCAASGFIFRYYAMGWYRQAPGKERELVASISYSGGTTYYADSVKGRFTISRDNAKNTVYLQMNSLKPEDTAVYYCNVYSRTHYQTYTDDYWGQGTQVTVSS”, for which the “polyreactivity (PSR sort gate)” value was “high polyreactivity”.

(Values after the nanobody polyreactivity screen of Harvey et al. (2022).)
